Format in all cases: physicochemical
The nature of data set [1]: Thermal aggregation of hemoglobin (absorption/scattering at 360 nm). Particulars: 0.1 mg/ml, 60° C., 20 min, He-Ne laser 632.8 nm, 0.63 watts/cm^2. The source says:
(§1) In this Example, the effects of light energy on the aggregation of a labile biomolecule in aqueous solution were examined. The device included a heating element and a laser, as depicted in FIG. 2. The laser operated at 632.8 nm, in the red portion of the spectrum, with a power density of 0.63 watts/cm^2. The 180 degree scattering at 360 nm (in terms of OD at 360 nm) was taken to measure the extent of aggregation because it is well-known that this scattering is a measure of the propensity of a protein to form aggregate. Aggregation of proteins of the reference samples was taken as 100% and the aggregation of laser-treated proteins in the test samples was calculated relative to the 100% aggregation of the reference samples.
Thermal aggregation of hemoglobin. Hemoglobin was purchased from Sigma-Aldrich (St. Louis, Mo.) and a 0.5 mg/ml stock solution was prepared by mixing with 100 mM phosphate buffer solution of pH 7.2. The aggregation of a 0.1 mg/ml hemoglobin solution was observed by measuring the absorption of radiation of 360 nm wavelength with a time duration of 20 min in a Perkin Elmer spectrophotometer at 60° C. Test samples were irradiated with He—Ne laser having power density is 0.63 watts/cm^2 and operating at a wavelength 632.8 nm. A control sample was subjected to identical conditions expect laser irradiation was not performed. […]

Data set [2] can be described thus: Dynamic light scattering of hemoglobin. Particulars: heated at 60° C. for 20 min without red laser light. As to the method: FIG. 4 represents the dynamic light scattering pattern of protein hemoglobin in the presence and absence of red laser light at 60° C. The hydrodynamic diameter of hemoglobin at 25° C. is 5.6 nm. When this protein solution was heated at 60° C. without red laser light for 20 min, the hydrodynamic diameter increases to 4801.0 nm. However, in the presence of red laser light the diameter increases to only 255.0 nm.

A short description of data set [3]: Dithiothreitol induced aggregation of insulin (absorption at 360 nm). The settings on record: 0.1 mg/ml, DTT 20 mM, 40° C., He-Ne laser 632.8 nm, 0.63 watts/cm^2.
From the text: as §1
Dithiothreitol induced aggregation of insulin. Insulin was purchased from ICN and a stock solution of insulin (0.5 mg/ml) was prepared by mixing with 100 mM phosphate buffer of pH 7.2. Disulphide linkages of insulin (0.1 mg/ml) were reduced by dithiothreitol (DTT, 20 mM), which leads aggregation of insulin at 40° C. This aggregation of protein was measured by absorption at 360 nm after heat treatment at 40° C. in a Perkin Elmer spectrophotometer. Aggregation of insulin was measured in the presence and in the absence of laser light. Test samples were irradiated with a He—Ne laser having power density is 0.63 watts/cm^2 and operating at a wavelength 632.8 nm. […]

Data set [4] is described as follows: Thermal aggregation of citrate synthase (OD at 360 nm). Particulars: for change in aggregation upon laser exposure: FIG. 5.
From the text: as §1
Thermal Aggregation of Citrate Synthase. Citrate synthase was purchased from Sigma-Aldrich and a 0.5 mg/ml stock solution was prepared by mixing with 100 mM phosphate buffer solution of pH 7.2. Citrate synthase was readily converted to its aggregated state from a native state at 45° C. The aggregation profile of the protein (0.1 mg/ml) was measured by measuring optical density (OD) at 360 nm in a Perkin Elmer spectrophotometer in 100 mM phosphate buffer of pH 7.2. Test samples were irradiated with a He—Ne laser having power density is 0.63 Watt/cm^2 and operating at a wavelength 632.8 nm. A control sample was subjected to identical conditions expect that laser irradiation was not performed. The results are shown in FIG. 3 and indicate that irradiation with laser light reduced the formation of protein aggregates by about 40% compared to an non-irradiated control sample.
A comparative study showing the effect of the power of the red laser on the aggregation of citrate synthase was conducted. Thermal aggregation of citrate synthase was determined by measuring absorption of radiation of 360 nm wavelength at 45° C. Aggregation of control samples (in absence of laser treatment) was considered as 100% aggregation while aggregation of the treated protein of the test samples was calculated relative to the 100% aggregation of the control samples. […] Thus, increasing the energy input to the test samples beyond that needed to increase the activation energy for unfolding the protein appears to generate heat energy that increases aggregation. As such, suitable methods for preventing protein aggregation use a low-power red laser.

In the case of hemoglobin, the “reduction of formation of hemoglobin aggregates compared to non-irradiated control” value in data set [1] is reported as “about 25%”. Also, the hydrodynamic diameter in data set [2] is 4801.0 nm.
For the molecule insulin, the “reduction of formation of insulin aggregates compared to non-irradiated control” value in data set [3] was “about 10%”.

B1: citrate synthase (protein, UniProt P00889 28-464, looked up)
Citrate synthase, …: ASSTNLKDILADLIPKEQARIKTFRQQHGNTVVGQITVDMMYGGMRGMKGLVYETSVLDPDEGIRFRGYSIPECQKMLPKAKGGEEPLPEGLFWLLVTGQIPTEEQVSWLSKEWAKRAALPSHVVTMLDNFPTNLHPMSQLSAAITALNSESNFARAYAEGIHRTKYWELIYEDCMDLIAKLPCVAAKIYRNLYREGSSIGAIDSKLDWSHNFTNMLGYTDAQFTELMRLYLTIHSDHEGGNVSAHTSHLVGSALSDPYLSFAAAMNGLAGPLHGLANQEVLVWLTQLQKEVGKDVSDEKLRDYIWNTLNSGRVVPGYGHAVLRKTDPRYTCQREFALKHLPHDPMFKLVAQLYKIVPNVLLEQGKAKNPWPNVDAHSGVLLQYYGMTEMNYYTVLFGVSRALGVLAQLIWSRALGFPLERPKSMSTDGLIKLVDSK
notes: a beta sheet-rich enzyme which readily aggregates by thermal treatment at 45° C; purchased from Sigma-Aldrich
Take B1: the “reduction of formation of protein aggregates compared to non-irradiated control” value in data set [4] (0.1 mg/ml, 45° C., He-Ne laser 632.8 nm, 0.63 Watt/cm^2) is recorded as “about 40%”. Also, the “aggregation relative to control samples (100%)” value in data set [4] (45° C., red laser 15 mW, 1.9 watts/cm^2) is listed as “approximately 145%”; in data set [4] (45° C., red laser 632.8 nm, 5 mW, 0.63 watts/cm^2) it was 60%. Besides, the “change in aggregation upon laser exposure” value in data set [4] (high power (15 mW) red laser) is listed as “increase in aggregation”; in data set [4] (low power (5 mW) red laser) it was “decrease in the aggregation”.

Values taken from US20110250670A1, “LIGHT ENERGY-INDUCED STABILITY OF BIOMATERIALS” (University of Calcutta, priority 2010, published 2011).
